Laboratory results as given in the supplement of paper PMC7877785.
± gives the uncertainty stated by the source.

Assay: self-splicing fitness, log relative to wild type (ln ratio); higher = more splicing; Tetrahymena group I intron in knt gene, E. coli kanamycin selection, DiMSum; sequences stand for … in CUCUCU…GGAGGGAAAAGUUAUCAGGCAUGCACCUGGUAGCUAGUCUUUAAACCAAUAGAUUGCAUCGGUUUAAAAGGCAAGACCGUCAAAUUGCGGGAAAGGGGUCAACAGCCGUUCAGUACCAAGUCUCAGGGGAAACUUUGAGAUGGCCUUGCAAAGGGUAUGGUAAUAAGCUGACGGACAUGGUCCUAACCACGCAGCCAAGUCCUAAGUCAACAGAUCUUCUGUUGAUAUGGAUGCAGUUCACAGACUAAAUGUCGGUCGGGGAAGAUGUAUUCUUCUCAUAAGAUAUAGUCGGACCUCUCCUUAAUGGGAGCUAGCGGAUGAAGUGAUGCAACACUGGAGCCGCUGGGAACUAAUUUGUAUGCGAAAGUAUAUUGAUUAGUUUUGGAGUACUCGUGGUCG
Method in brief: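 A randomised library covering all eight P1ex-region intron nucleotides was built with the intron in the knt kanamycin-resistance gene on pET-22b(+) and held in E. coli BL21(DE3). Cells were grown overnight at 37°C or 30°C on LB agar, with or without 25 μg/mL kanamycin, plus 100 μg/mL carbenicillin, 50 μM IPTG and 0.2% rhamnose, and pooled colonies were amplicon-sequenced on an Illumina HiSeq 2500. DiMSum fitness is the error-weighted combination of wild-type-normalised replicate fold changes, kanamycin versus none.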

UAUUAGCAAUAUUACGUUUG
self-splicing fitness (ln) (30 °C): -2.12 ± 0.12
self-splicing fitness (ln) (37 °C): -0.749 ± 0.13

UUCUAGCAAUAUUACGAAUC
self-splicing fitness (ln) (37 °C): -1.98 ± 0.25

CAGCAGCAAUAUUACGGGUC
self-splicing fitness (ln) (30 °C): -2.33 ± 0.14
self-splicing fitness (ln) (37 °C): -1.96 ± 0.19

AUCGAGCAAUAUUACGACAC
self-splicing fitness (ln) (30 °C): -2.4 ± 0.29
self-splicing fitness (ln) (37 °C): -0.469 ± 0.22

AUAAAGCAAUAUUACGAUUG
self-splicing fitness (ln) (30 °C): -2.38 ± 0.14
self-splicing fitness (ln) (37 °C): -1.14 ± 0.16

GCUCAGCAAUAUUACGGCGG
self-splicing fitness (ln) (30 °C): -3.09 ± 0.29
self-splicing fitness (ln) (37 °C): -1.46 ± 0.29

UGCAAGCAAUAUUACGCACU
self-splicing fitness (ln) (30 °C): -2.92 ± 0.13
self-splicing fitness (ln) (37 °C): -1.28 ± 0.1

AGCUAGCAAUAUUACGAAGG
self-splicing fitness (ln) (30 °C): -4.22 ± 0.39
self-splicing fitness (ln) (37 °C): -1.82 ± 0.26

UUAUAGCAAUAUUACGUAGU
self-splicing fitness (ln) (30 °C): -3.03 ± 0.24
self-splicing fitness (ln) (37 °C): -2.71 ± 0.4

CAAAAGCAAUAUUACGGACU
self-splicing fitness (ln) (30 °C): -2.38 ± 0.12
self-splicing fitness (ln) (37 °C): -1.46 ± 0.12

CCGGAGCAAUAUUACGCAGC
self-splicing fitness (ln) (37 °C): -2.52 ± 0.37

AAUCAGCAAUAUUACGUCAC
self-splicing fitness (ln) (30 °C): -3.34 ± 0.27
self-splicing fitness (ln) (37 °C): -1.93 ± 0.19

UAACAGCAAUAUUACGAAAG
self-splicing fitness (ln) (30 °C): -1.44 ± 0.14
self-splicing fitness (ln) (37 °C): -1.76 ± 0.21

UGCAAGCAAUAUUACGGCGA
self-splicing fitness (ln) (30 °C): -0.0647 ± 0.094
self-splicing fitness (ln) (37 °C): -0.21 ± 0.11

UAUUAGCAAUAUUACGUCAA
self-splicing fitness (ln) (30 °C): -1.86 ± 0.21
self-splicing fitness (ln) (37 °C): -1.34 ± 0.24

AAGUAGCAAUAUUACGUCAG
self-splicing fitness (ln) (30 °C): -3.38 ± 0.19
self-splicing fitness (ln) (37 °C): -2.43 ± 0.18

CUGCAGCAAUAUUACGAAAC
self-splicing fitness (ln) (37 °C): -1.87 ± 0.37

AUCUAGCAAUAUUACGCGAU
self-splicing fitness (ln) (37 °C): -2.53 ± 0.29

AUGUAGCAAUAUUACGAUCA
self-splicing fitness (ln) (30 °C): -0.747 ± 0.22
self-splicing fitness (ln) (37 °C): -0.492 ± 0.18

CGCAAGCAAUAUUACGCGGU
self-splicing fitness (ln) (30 °C): -2.75 ± 0.11
self-splicing fitness (ln) (37 °C): -2.44 ± 0.17

GAGAAGCAAUAUUACGGCGA
self-splicing fitness (ln) (30 °C): 0.0811 ± 0.15
self-splicing fitness (ln) (37 °C): -0.777 ± 0.12

ACAUAGCAAUAUUACGUGGC
self-splicing fitness (ln) (30 °C): -3.8 ± 0.23
self-splicing fitness (ln) (37 °C): -3.09 ± 0.27

CAAGAGCAAUAUUACGCCUC
self-splicing fitness (ln) (30 °C): -1.95 ± 0.33

CGCUAGCAAUAUUACGCCGC
self-splicing fitness (ln) (30 °C): -2.55 ± 0.18

AGACAGCAAUAUUACGCCAG
self-splicing fitness (ln) (30 °C): -4.58 ± 0.46
self-splicing fitness (ln) (37 °C): -3.27 ± 0.26

UCCUAGCAAUAUUACGUCGU
self-splicing fitness (ln) (30 °C): -2.3 ± 0.13
self-splicing fitness (ln) (37 °C): -0.732 ± 0.13

UUCAAGCAAUAUUACGAAAA
self-splicing fitness (ln) (30 °C): -0.341 ± 0.15
self-splicing fitness (ln) (37 °C): -0.222 ± 0.18

ACGGAGCAAUAUUACGCCCA
self-splicing fitness (ln) (30 °C): -2.81 ± 0.43
self-splicing fitness (ln) (37 °C): -1.92 ± 0.37

GACGAGCAAUAUUACGUGGC
self-splicing fitness (ln) (30 °C): -0.192 ± 0.41
self-splicing fitness (ln) (37 °C): -1.57 ± 0.22

CCGGAGCAAUAUUACGUUCU
self-splicing fitness (ln) (30 °C): -1.23 ± 0.14

CGGCAGCAAUAUUACGCAUU
self-splicing fitness (ln) (30 °C): -2.66 ± 0.15
self-splicing fitness (ln) (37 °C): -2.33 ± 0.14

GAUUAGCAAUAUUACGUUGC
self-splicing fitness (ln) (37 °C): -1.94 ± 0.26

UGGUAGCAAUAUUACGCUAA
self-splicing fitness (ln) (30 °C): -1.37 ± 0.14
self-splicing fitness (ln) (37 °C): -0.667 ± 0.16

GGCCAGCAAUAUUACGCACC
self-splicing fitness (ln) (30 °C): -2.17 ± 0.12
self-splicing fitness (ln) (37 °C): -0.636 ± 0.14

GAUGAGCAAUAUUACGUCCG
self-splicing fitness (ln) (30 °C): -3.75 ± 0.43
self-splicing fitness (ln) (37 °C): -2.09 ± 0.32

CGCAAGCAAUAUUACGAGGU
self-splicing fitness (ln) (30 °C): -4.03 ± 0.23
self-splicing fitness (ln) (37 °C): -1.82 ± 0.16

AUGAAGCAAUAUUACGAGAG
self-splicing fitness (ln) (30 °C): -2.78 ± 0.15
self-splicing fitness (ln) (37 °C): -0.788 ± 0.1

GACUAGCAAUAUUACGAGUA
self-splicing fitness (ln) (30 °C): -0.991 ± 0.067
self-splicing fitness (ln) (37 °C): -0.253 ± 0.069

GCAAAGCAAUAUUACGAUGG
self-splicing fitness (ln) (30 °C): -1.02 ± 0.099
self-splicing fitness (ln) (37 °C): -0.442 ± 0.13

CUGUAGCAAUAUUACGCGCG
self-splicing fitness (ln) (30 °C): -0.982 ± 0.12
self-splicing fitness (ln) (37 °C): -0.117 ± 0.14
